Test results published in patent US5215888A, “Kit for assaying the cellular integrity of blood platelets” (Yeda Research and Development Co. Ltd., priority 1988, dated 1993).
Ends that are not written are not given here.

Key:
PKA = molecular target: T1, PKA (Homo sapiens, UniProt P17612); test: Inhibition of vitronectin phosphorylation by PKA in the presence of competing peptide; format: biochemical; details: for inhibition of the phosphorylation of vitronectin by PKA (in words): competitive
T1 construct: pure catalytic subunit of PKA from rabbit muscle; from tissue
Source text: Peptides containing the sequence Arg-Arg-Pro-X-Arg (X=Ser, Thr, Ala, Cys, Tyr) inhibit the phosphorylation of vitronectin by PKA.
FIG. 5 Inhibition of vitronectin phosphorylation by PKA in the presence of the indicated concentrations of a peptide identical in sequence to the site phosphorylated in vitronectin.

[1] = system: vitronectin phosphorylation by PKA; test: Phosphorylation of vitronectin at various pH in the presence or absence of heparin; format: biochemical; details: 3-fold molar excess of heparin over vitronectin (2.7 μM); FIG. 6
Procedure: The phosphorylation of vitronectin (p75 and mainly the p65 form) is affected by pH and by the presence of heparin in the reaction mixture (FIG. 6).
FIG. 6 Vitronectin (2.7 μM was incubated for 2 h at 22° C. with C (1 μg/ml) in the presence of Mg(CH3 COO)2 (10 mM), [γ^32 ]ATP 50 μM, 0.5 Ci/mmol), (50 Mes at the indicated pH), and a 3-fold molar excess of heparin over vitronectin (where indicated). The reaction was terminated by boiling in Laemli's sample buffer and the extent of phosphorylation was analyzed by polyacrylamide gel electrophoresis and autoradiography.

Row | Ki (PKA; FIG. 5, peptide competes as alternative substrate, read-out: Ki concentration for inhibition of the phosphorylation of vitronectin by PKA) [µM] | inhibition of the phosphorylation of vitronectin by PKA (in words) (PKA) | Substance | effect on the amount of phosphorylation of vitronectin [1]
1 | 30 | compete with (inhibit) | SRRPSRAT | –
2 | – | competitively inhibit | -Arg-Arg-Pro-Ser-Arg- (RRPSR; printed: Arg-Arg-Pro-Ser-Arg-) | –
3 | – | – | heparin | increase
